Experimental data: US20240216517A1 (CELLEMEDY, published 2024)

Molecular target: T1, human transferrin receptor-Fc tag standard (human, UniProt P02786 89-760)
T1 construct: This is a bought standard coated on the ELISA plate; also called hTfR; not shown: Fc tag
Test: ELISA, human transferrin receptor-Fc coated on the plate; Kd calculated from an expected saturation point, curve not saturated at 10000 nM
Protocol: Then, it was washed 3 times with 200 μl of PBST (PBS+Tween0.05%). An antibody (mouse anti-His tag antibody, Hisprobe) that specifically binds to the hexa-His tag was diluted 1/1000 in PBST, and the diluted solution was treated by 100 μl at room temperature for 1 hour.
Then, it was washed 3 times with 200 μl of PBST (PBS+Tween0.05%). TMB solution expressing coloration by reacting with HRP was treated by 100 μl at room temperature for 15 minutes. After 50 μl of 1M H₂SO₄ solution was treated, optical density was measured with TECAN at a wavelength of 450 nm. This was calculated using the Langmuir equation (Table 5, FIGS. 8 to 10).
FIG. 11 illustrates results of evaluation/comparison of the binding force of huHF_mutant1-dual and huHF_mutant2-dual to hTfR.

T1 sequence (P02786 89-760 limits assumed): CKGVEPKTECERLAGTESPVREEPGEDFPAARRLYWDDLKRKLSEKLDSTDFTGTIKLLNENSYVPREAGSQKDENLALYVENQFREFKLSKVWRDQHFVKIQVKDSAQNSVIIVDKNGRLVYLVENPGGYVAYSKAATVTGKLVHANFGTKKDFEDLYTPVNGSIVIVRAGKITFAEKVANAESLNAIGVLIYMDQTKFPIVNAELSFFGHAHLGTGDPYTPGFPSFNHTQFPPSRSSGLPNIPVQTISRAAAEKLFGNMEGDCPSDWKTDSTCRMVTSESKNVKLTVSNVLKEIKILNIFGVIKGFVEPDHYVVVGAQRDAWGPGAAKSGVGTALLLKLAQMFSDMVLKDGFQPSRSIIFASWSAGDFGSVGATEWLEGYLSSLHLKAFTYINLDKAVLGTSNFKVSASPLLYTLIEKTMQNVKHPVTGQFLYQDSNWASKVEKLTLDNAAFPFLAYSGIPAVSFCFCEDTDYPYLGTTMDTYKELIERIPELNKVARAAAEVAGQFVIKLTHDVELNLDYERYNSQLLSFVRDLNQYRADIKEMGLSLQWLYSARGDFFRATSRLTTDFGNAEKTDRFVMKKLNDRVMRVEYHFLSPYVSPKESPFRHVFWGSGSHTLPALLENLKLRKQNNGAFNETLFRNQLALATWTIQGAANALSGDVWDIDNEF

Kd: ~4.4 µM
B1: huHF_Mutant2-dual (designed binder)
chain: MTTASTSQVRQNYHAASEAAINAQINLELYASYVYLSMSYYFDRDDVALKNFAKYFLHQSHEEREHAEKLMKLQNQRGGRIALADIQKPDCDGGSYGSLYAFDIDWESGLNAMECALHLEKNVNQSLLALHALATAKNDPHLCDFIETHYLNEQVKAIKELGDHVTNLRKMGAPESGLAEYLFDKHTLGDSDNESMPSFITLASLSTWEGYFDF
notes: It self-assembles into a 24-mer nanoparticle
